From paper PMC12137140, “The fast-evolving FIKK kinase family of Plasmodium falciparum can be inhibited by a single compound” (Nature Microbiology, 2025)

B1: FIKK13_4_S7AY10A (peptide)
chain: YPLRFLAVKAHCG
modifications: D-tyrosine at position 1; cyclised via a thioether bond between the N-terminus and the cysteine side chain; C-terminal amide
B2: FIKK13_4 (peptide)
chain: YPLRFLSKYHCG
modifications: D-tyrosine at the N-terminus; cyclised via a thioether bond between the N-terminus and the cysteine side chain; C-terminal amide

Legend:
Bio-His-FIKK13 [1] = molecular target: T1, Bio-His-FIKK13 (Plasmodium falciparum 3D7, biotin (site not stated)); experiment: SPR; single-cycle kinetics, Biacore S200, Biotin CAPture kit; Bio-His-FIKK13 immobilised (about 1,400 RU), peptides as analytes; 50 mM Tris pH 7.5, 250 mM NaCl, 2 mM DTT, 10 mM MgCl2, 1.5 µM ADP, 0.02% Tween, 0.1% DMSO; 25 °C; 100 s contact time; conditions: both partners purified
T1 construct: also called His-bio-FIKK13; PfFIKK13

Bio-His-FIKK13 [2] = molecular target: T2, Bio-His-FIKK13 (P. falciparum, biotin (site not stated)); experiment: SPR; Bio-His-FIKK13 immobilised (Biotin CAPture kit, about 1,400 RU), Biacore S200, single-cycle kinetics, 100 s contact time, 25 °C, 50 mM Tris pH 7.5, 250 mM NaCl, 2 mM DTT, 10 mM MgCl2, 1.5 µM ADP, 0.02% Tween, 0.1% DMSO; conditions: both partners purified
T2 construct: also called His-bio-FIKK13; biotinylated FIKK13

Row | Binder | Kd (Bio-His-FIKK13 [1]) [nM] | Kd (Bio-His-FIKK13 [2]) [nM]
1 | B1 | > 10000 | 
2 | B2 |  | 17
